Reference: patent US20140243255A1

Biological target: Mtb ClpP1P2 protease complex (one heptameric ClpP1 ring and one heptameric ClpP2 ring) (Mycobacterium tuberculosis) (UniProt P0A527)

Substance	Kd
Z-Leu-leucinal (peptide)	240 µM
Z-Leu-Leu (peptide)	2200 µM
